Source: article PMC5571939, “The nature of the Syntaxin4 C-terminus affects Munc18c-supported SNARE assembly” (PLoS ONE, 2017)

B1: Sx4_(1-275)-His (domain or fragment, rat, UniProt Q08850 1-275, looked up)
chain: MRDRTHELRQGDNISDDEDEVRVALVVHSGAARLSSPDDEFFQKVQTIRQTMAKLESKVRELEKQQVTILATPLPEESMKQGLQNLREEIKQLGREVRAQLKAIEPQKEEADENYNSVNTRMKKTQHGVLSQQFVELINKSNSMQSEYREKNVERIRRQLKITNAGMVSDEELEQMLDSGQSEVFVSNILKDTQVTRQALNEISARHSEIQQLERSIRELHEIFTFLATEVEMQGEMINRIEKNILSSADYVERGQEHVKIALENQKKARKKKVM
notes: also called Syntaxin4 soluble cytoplasmic domain with C-terminal His6; source: E. coli, purified as described previously [17, 28]; not shown: His6, C-terminal, kept

What was measured:
Settings in all cases: both partners purified
Munc18c (de-tagged) = molecular target: T1, Munc18c (de-tagged) (mouse, UniProt Q60770 1-592); assay: BLI; C-terminally His-tagged Sx4 constructs loaded on Ni-NTA biosensors; de-tagged Munc18c 10/25–400 nM in solution; 25 mM Tris-Cl pH 7.5, 150 mM NaCl, 10 mM imidazole, 0.1% TX-100, 10% glycerol, 2 mM βME; BLItz; 1:1 fit
T1 construct: Munc18c (Munc18-3), mouse; also called detagged Munc18c; HTMunc18c after TEV cleavage; source: E. coli, purified (IMAC, TEV cleavage, reverse IMAC, SEC); not shown: His6, N-terminal, cleaved
T1 sequence (looked up): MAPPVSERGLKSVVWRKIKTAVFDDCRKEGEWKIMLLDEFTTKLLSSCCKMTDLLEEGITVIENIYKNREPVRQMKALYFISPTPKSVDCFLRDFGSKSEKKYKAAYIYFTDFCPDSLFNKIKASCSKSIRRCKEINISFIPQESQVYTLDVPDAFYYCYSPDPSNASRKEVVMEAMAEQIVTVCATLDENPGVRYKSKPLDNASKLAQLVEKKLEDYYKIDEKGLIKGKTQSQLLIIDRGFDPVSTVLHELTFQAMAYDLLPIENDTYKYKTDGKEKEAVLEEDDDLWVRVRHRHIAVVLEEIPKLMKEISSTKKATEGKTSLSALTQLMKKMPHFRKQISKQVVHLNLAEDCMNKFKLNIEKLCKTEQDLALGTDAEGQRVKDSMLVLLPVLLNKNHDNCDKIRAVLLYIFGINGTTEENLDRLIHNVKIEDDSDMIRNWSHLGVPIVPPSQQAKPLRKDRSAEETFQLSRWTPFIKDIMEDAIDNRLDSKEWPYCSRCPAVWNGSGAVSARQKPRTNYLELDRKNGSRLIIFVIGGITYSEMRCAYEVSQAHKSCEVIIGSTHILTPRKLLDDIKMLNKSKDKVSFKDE

HL-Munc18c = molecular target: T2, HL-Munc18c (mouse, UniProt Q60770 1-592); assay: pull-down; HL-Munc18c (20 μg, 1.4 μM) immobilised on TALON Co2+ beads; de-tagged Sx4 proteins (50 μg) added for 4 h (legend: 6 h), washed; binding buffer with 0.1% Triton X-100; SDS-PAGE, Coomassie
T2 construct: Munc18c (Munc18-3), mouse; The linker is said to have 53 amino acids; also called Munc18c with N-terminal His6-tag and long linker; source: E. coli, purified as described previously [39]; not shown: His6 with long linker ([residues removed]), N-terminal, kept
T2 sequence (looked up): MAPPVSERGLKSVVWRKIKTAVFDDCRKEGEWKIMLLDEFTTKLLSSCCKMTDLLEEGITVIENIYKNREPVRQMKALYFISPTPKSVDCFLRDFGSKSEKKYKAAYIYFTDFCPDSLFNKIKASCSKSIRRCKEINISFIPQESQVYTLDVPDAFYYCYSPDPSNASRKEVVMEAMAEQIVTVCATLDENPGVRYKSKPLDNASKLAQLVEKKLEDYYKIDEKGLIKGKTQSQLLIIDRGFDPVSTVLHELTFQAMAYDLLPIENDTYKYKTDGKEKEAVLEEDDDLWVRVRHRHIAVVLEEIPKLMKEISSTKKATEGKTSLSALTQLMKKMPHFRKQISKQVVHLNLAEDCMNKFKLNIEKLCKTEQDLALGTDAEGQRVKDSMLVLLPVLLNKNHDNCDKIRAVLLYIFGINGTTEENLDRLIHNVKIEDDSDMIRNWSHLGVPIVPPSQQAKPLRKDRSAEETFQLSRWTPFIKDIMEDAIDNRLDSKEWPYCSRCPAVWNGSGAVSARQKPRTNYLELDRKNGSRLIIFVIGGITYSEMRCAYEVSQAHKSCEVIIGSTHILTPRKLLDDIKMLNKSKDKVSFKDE

[1] = molecular target: T3, Munc18c:Sx4_(1-298)-TMD (HL-Munc18c with de-tagged full-length Sx4, pre-formed) (mouse, UniProt Q60770 1-592; P70452 1-298); assay: pull-down; beads with pre-formed HL-Munc18c/Sx4 binary complexes incubated with SNAP23 (100 μg, 21.7 μM) and VAMP2 (80 μg, 31.7 μM) together, overnight, 4°C; SDS-PAGE, Coomassie
T3 construct: Munc18c (Munc18-3), mouse; as m12; Syntaxin4 (Sx4) with its C-terminal transmembrane domain, mouse, amino acids 1-298; as m6; also called HL-Munc18c/Sx4 binary complex; source: formed on TALON Co2+ beads from purified E. coli proteins; not shown: His6 with long linker ([residues removed]), N-terminal, kept; His6, N-terminal, cleaved
T3 sequence (looked up) 1: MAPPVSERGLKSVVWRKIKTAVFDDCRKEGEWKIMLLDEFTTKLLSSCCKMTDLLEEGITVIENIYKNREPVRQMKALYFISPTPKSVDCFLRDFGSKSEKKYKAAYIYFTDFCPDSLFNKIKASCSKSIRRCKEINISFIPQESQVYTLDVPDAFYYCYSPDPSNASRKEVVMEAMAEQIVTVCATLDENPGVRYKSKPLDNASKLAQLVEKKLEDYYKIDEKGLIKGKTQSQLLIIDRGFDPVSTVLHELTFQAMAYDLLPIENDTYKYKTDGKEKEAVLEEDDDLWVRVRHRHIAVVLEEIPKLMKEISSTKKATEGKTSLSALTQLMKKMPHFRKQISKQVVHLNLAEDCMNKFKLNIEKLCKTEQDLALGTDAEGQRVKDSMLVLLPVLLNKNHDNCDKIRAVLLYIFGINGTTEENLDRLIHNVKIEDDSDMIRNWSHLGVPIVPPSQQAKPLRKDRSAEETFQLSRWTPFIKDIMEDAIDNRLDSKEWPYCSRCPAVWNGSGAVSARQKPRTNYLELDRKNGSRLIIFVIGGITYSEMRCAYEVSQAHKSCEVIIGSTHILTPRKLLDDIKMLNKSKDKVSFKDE
T3 sequence (looked up) 2: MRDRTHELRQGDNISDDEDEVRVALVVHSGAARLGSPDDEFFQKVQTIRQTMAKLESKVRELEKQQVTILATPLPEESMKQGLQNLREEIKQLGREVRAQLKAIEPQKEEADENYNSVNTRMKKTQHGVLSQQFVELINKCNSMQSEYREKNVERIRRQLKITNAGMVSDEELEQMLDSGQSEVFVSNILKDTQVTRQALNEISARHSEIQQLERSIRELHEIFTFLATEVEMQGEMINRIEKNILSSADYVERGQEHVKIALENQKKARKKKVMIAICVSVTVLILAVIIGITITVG

Sx4_(1-275)-His = molecular target: B1; assay: pull-down; Sx4-His proteins immobilised by C-terminal His6 on Co2+ resin, pre-complexed with de-tagged Munc18c or without it (controls); GST-cleaved SNAP23 and VAMP2 (40 μg) added together, overnight, 4°C; SDS-PAGE, Coomassie
[2] = molecular target: T4, Munc18c:Sx4_(1-275)-His pre-formed complex (rat | mouse, UniProt Q08850 1-275; Q60770 1-592, C141S); assay: as above
T4 construct: as m1; Munc18c (Munc18-3), mouse; as m10; m1 immobilised by its C-terminal His6 and complexed with m10 before SNAP23 and VAMP2 were added; also called Munc18c/Sx4-His; source: formed on TALON Co2+ beads from purified E. coli proteins; not shown: His6, C-terminal, kept; His6, N-terminal, cleaved
T4 sequence (looked up) 1: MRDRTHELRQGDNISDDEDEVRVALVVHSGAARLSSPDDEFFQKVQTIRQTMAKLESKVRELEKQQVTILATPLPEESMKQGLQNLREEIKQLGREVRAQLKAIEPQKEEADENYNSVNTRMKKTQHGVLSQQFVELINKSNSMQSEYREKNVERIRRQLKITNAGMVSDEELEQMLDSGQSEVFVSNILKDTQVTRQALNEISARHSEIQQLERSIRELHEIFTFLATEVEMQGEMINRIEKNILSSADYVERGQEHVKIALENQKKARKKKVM
T4 sequence (looked up) 2: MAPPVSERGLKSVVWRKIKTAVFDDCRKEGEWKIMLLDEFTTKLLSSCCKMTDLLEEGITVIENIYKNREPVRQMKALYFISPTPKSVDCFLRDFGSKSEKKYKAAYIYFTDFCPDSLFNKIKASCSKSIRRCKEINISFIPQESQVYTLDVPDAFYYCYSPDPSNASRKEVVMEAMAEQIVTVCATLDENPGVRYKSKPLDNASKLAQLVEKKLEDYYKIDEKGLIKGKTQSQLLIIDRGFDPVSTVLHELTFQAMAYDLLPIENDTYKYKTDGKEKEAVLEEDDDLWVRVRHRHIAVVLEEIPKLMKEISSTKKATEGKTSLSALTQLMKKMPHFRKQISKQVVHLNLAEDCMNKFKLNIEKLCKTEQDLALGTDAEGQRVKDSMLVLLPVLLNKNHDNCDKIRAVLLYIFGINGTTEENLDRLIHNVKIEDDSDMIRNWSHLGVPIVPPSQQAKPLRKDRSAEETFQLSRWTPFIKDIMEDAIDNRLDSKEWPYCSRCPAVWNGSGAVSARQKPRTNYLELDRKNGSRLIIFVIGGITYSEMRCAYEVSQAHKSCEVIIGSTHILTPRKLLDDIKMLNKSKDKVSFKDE

## B1
Munc18c (de-tagged)
  Kd: 21 nM
  koff: 0.0086 s⁻¹
  kon: 530000 M⁻¹ s⁻¹

B2: Sx4_(1-298)-TMD (de-tagged, in detergent micelles) (natural protein, mouse, UniProt P70452 1-298, looked up)
chain: MRDRTHELRQGDNISDDEDEVRVALVVHSGAARLGSPDDEFFQKVQTIRQTMAKLESKVRELEKQQVTILATPLPEESMKQGLQNLREEIKQLGREVRAQLKAIEPQKEEADENYNSVNTRMKKTQHGVLSQQFVELINKCNSMQSEYREKNVERIRRQLKITNAGMVSDEELEQMLDSGQSEVFVSNILKDTQVTRQALNEISARHSEIQQLERSIRELHEIFTFLATEVEMQGEMINRIEKNILSSADYVERGQEHVKIALENQKKARKKKVMIAICVSVTVLILAVIIGITITVG
notes: Syntaxin4 (Sx4) with its C-terminal transmembrane domain, mouse, amino acids 1-298, synthetic gene (GenScript); Mouse, whereas the soluble Sx4 constructs are rat; also called full-length Sx4; HT-Sx4-TMD after TEV cleavage; source: E. coli Lemo21 (DE3), purified in DDM (TALON Co2+ IMAC, TEV cleavage, reverse IMAC); not shown: His6, N-terminal, cleaved
HL-Munc18c
  binding result: binds

B3: SNAP23 (GST-cleaved) (natural protein, mouse, UniProt O09044 1-210, looked up)
chain: MDNLSPEEVQLRAHQVTDESLESTRRILGLAIESQDAGIKTITMLDEQGEQLNRIEEGMDQINKDMREAEKTLTELNKCCGLCICPCNRTKNFESGKNYKATWGDGGDNSPSNVVSKQPSRITNGQPQQTTGAASGGYIKRITNDAREDEMEENLTQVGSILGNLKNMALDMGNEIDAQNQQIQKITEKADTNKNRIDIANTRAKKLIDS
notes: SNAP23, mouse, amino acids 1-210; source: purified (GSH-agarose, thrombin cleavage, MonoQ anion exchange)
[1]
  binding result: binds
Sx4_(1-275)-His
  binding result: binds
[2]
  binding result: binds
